In patent EP3350599B1:

Assays:
[1] = biological target: purified bone alkaline phosphatase from calf intestinal mucosa (AP; Santa Cruz sc-3716 - CAS9001-78-9) (calf) (UniProt P19111); test: capture ELISA, coated antibody, AP calibrator at 100 ng/ml, bound enzyme read with pNPP
[2] = biological target: purified bone alkaline phosphatase from calf intestinal mucosa (AP; Santa Cruz sc-3716 - CAS9001-78-9) (calf) (UniProt P19111); test: capture ELISA, coated antibody, AP calibrator at 25 ng/ml, bound enzyme read with pNPP
[3] = biological target: purified bone alkaline phosphatase from calf intestinal mucosa (AP; Santa Cruz sc-3716 - CAS9001-78-9) (calf) (UniProt P19111); test: capture ELISA, coated antibody, AP calibrator at 50 ng/ml, bound enzyme read with pNPP
[4] = biological target: purified bone alkaline phosphatase from calf intestinal mucosa (AP; Santa Cruz sc-3716 - CAS9001-78-9) (calf) (UniProt P19111); test: capture ELISA, coated antibody, AP calibrator at 3.125 ng/ml, bound enzyme read with pNPP
[5] = biological target: purified bone alkaline phosphatase from calf intestinal mucosa (AP; Santa Cruz sc-3716 - CAS9001-78-9) (calf) (UniProt P19111); test: capture ELISA, coated antibody, AP calibrator at 12.5 ng/ml, bound enzyme read with pNPP
[6] = biological target: purified bone alkaline phosphatase from calf intestinal mucosa (AP; Santa Cruz sc-3716 - CAS9001-78-9) (calf) (UniProt P19111); test: capture ELISA, coated antibody, AP calibrator at 6.25 ng/ml, bound enzyme read with pNPP

Chain of UniProt P19111 (P19111 20-506): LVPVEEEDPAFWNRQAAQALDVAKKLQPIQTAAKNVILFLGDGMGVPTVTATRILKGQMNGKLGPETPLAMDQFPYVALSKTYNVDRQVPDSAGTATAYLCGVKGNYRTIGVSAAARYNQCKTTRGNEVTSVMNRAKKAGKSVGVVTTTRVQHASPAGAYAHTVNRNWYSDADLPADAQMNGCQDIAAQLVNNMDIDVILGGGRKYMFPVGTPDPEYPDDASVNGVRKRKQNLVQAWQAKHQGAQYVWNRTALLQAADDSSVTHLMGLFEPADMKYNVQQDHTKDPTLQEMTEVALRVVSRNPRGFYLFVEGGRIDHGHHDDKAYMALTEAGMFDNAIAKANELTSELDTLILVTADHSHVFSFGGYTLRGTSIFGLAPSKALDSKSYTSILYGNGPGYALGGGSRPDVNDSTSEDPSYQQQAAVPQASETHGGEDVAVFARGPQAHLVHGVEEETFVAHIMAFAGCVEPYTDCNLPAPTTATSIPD

Abs. 415 nm, Abs. (1) [1]: 1.09 Abs. 415 nm | Abs. 415 nm, Abs. (2) [1]: 1.03 Abs. 415 nm | Abs. 415 nm, Abs. (3) [1]: 1.12 Abs. 415 nm | Mean Abs. 415 nm [1]: 1.08 Abs. 415 nm | Abs. 415 nm, Abs. (1) [2]: 0.345 Abs. 415 nm | Abs. 415 nm, Abs. (2) [2]: 0.272 Abs. 415 nm | Abs. 415 nm, Abs. (3) [2]: 0.294 Abs. 415 nm | Mean Abs. 415 nm [2]: 0.304 Abs. 415 nm | Abs. 415 nm, Abs. (1) [3]: 0.628 Abs. 415 nm | Abs. 415 nm, Abs. (2) [3]: 0.501 Abs. 415 nm | Abs. 415 nm, Abs. (3) [3]: 0.476 Abs. 415 nm | Mean Abs. 415 nm [3]: 0.535 Abs. 415 nm | Abs. 415 nm, Abs. (1) [4]: 0.054 Abs. 415 nm | Abs. 415 nm, Abs. (2) [4]: 0.05 Abs. 415 nm | Abs. 415 nm, Abs. (3) [4]: 0.066 Abs. 415 nm | Mean Abs. 415 nm [4]: 0.057 Abs. 415 nm | Abs. 415 nm, Abs. (1) [5]: 0.186 Abs. 415 nm | Abs. 415 nm, Abs. (2) [5]: 0.156 Abs. 415 nm | Abs. 415 nm, Abs. (3) [5]: 0.161 Abs. 415 nm | Mean Abs. 415 nm [5]: 0.168 Abs. 415 nm | Abs. 415 nm, Abs. (1) [6]: 0.11 Abs. 415 nm | Abs. 415 nm, Abs. (2) [6]: 0.098 Abs. 415 nm | Abs. 415 nm, Abs. (3) [6]: 0.089 Abs. 415 nm | Mean Abs. 415 nm [6]: 0.099 Abs. 415 nm
Substance: anti-BAP polyclonal IgG antibody (produced in sheep) specific for bone alkaline phosphatase (Abcam Ab68716)
